Assay [1] addresses human glucagon-like peptide 1 receptor (GLP-1R) (human, UniProt P43220). As to the kind of experiment: cell-based or functional assay.
Assay [2] has as its target T1, human GLP-2 receptor (hGLP2-R) (human, UniProt O95838).
T1 sequence: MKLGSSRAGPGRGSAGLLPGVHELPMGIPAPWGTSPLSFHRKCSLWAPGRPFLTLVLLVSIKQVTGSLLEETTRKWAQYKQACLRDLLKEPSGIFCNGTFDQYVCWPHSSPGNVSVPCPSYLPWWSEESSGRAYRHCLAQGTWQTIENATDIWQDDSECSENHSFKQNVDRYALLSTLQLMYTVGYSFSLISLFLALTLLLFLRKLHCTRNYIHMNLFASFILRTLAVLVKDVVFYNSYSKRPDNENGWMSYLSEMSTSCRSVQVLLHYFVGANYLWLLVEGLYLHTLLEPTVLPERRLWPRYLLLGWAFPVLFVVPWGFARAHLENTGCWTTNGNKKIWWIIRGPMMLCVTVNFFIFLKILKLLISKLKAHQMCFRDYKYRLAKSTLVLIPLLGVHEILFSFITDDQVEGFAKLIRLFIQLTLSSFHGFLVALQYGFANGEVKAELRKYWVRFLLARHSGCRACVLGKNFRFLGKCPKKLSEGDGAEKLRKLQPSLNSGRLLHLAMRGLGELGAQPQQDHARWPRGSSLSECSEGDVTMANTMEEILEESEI
The assay can be described thus: cell-based or functional assay.

Square brackets hold non-standard residues; d marks the D form. Aib = CC(C)(N)C(=O)O

B1: Compound 8 (peptide)
peptide: H-H[Aib]EGSFTSELATILDEQAARDFIAWLILHKITD-OH
SMILES: CC[C@H](C)[C@H](NC(=O)[C@H](Cc1ccccc1)NC(=O)[C@H](CC(=O)O)NC(=O)[C@H](CCCNC(=N)N)NC(=O)[C@H](C)NC(=O)[C@H](C)NC(=O)[C@H](CCC(N)=O)NC(=O)[C@H](CCC(=O)O)NC(=O)[C@H](CC(=O)O)NC(=O)[C@H](CC(C)C)NC(=O)[C@@H](NC(=O)[C@@H](NC(=O)[C@H](C)NC(=O)[C@H](CC(C)C)NC(=O)[C@H](CCC(=O)O)NC(=O)[C@H](CO)NC(=O)[C@@H](NC(=O)[C@H](Cc1ccccc1)NC(=O)[C@H](CO)NC(=O)CNC(=O)[C@H](CCC(=O)O)NC(=O)C(C)(C)NC(=O)[C@@H](N)Cc1c[nH]cn1)[C@@H](C)O)[C@@H](C)O)[C@@H](C)CC)C(=O)N[C@@H](C)C(=O)N[C@@H](Cc1c[nH]c2ccccc12)C(=O)N[C@@H](CC(C)C)C(=O)N[C@H](C(=O)N[C@@H](CC(C)C)C(=O)N[C@@H](Cc1c[nH]cn1)C(=O)N[C@@H](CCCCN)C(=O)N[C@H](C(=O)N[C@H](C(=O)N[C@@H](CC(=O)O)C(=O)O)[C@@H](C)O)[C@@H](C)CC)[C@@H](C)CC
Turning to B1, the “EC50 GLP-1 (nM); cAMP AlphaScreen” value in assay [1] amounted to 0.021 nM. Moreover, in assay [2], the “EC50 GLP-2 (nM); cAMP AlphaScreen” value was 0.084 nM.

B2: Compound 5 (peptide)
peptide: H-H[Aib]EGTFTSELATILDEQAARDFIAWLIEHKITD-OH
SMILES: CC[C@H](C)[C@H](NC(=O)[C@H](Cc1ccccc1)NC(=O)[C@H](CC(=O)O)NC(=O)[C@H](CCCNC(=N)N)NC(=O)[C@H](C)NC(=O)[C@H](C)NC(=O)[C@H](CCC(N)=O)NC(=O)[C@H](CCC(=O)O)NC(=O)[C@H](CC(=O)O)NC(=O)[C@H](CC(C)C)NC(=O)[C@@H](NC(=O)[C@@H](NC(=O)[C@H](C)NC(=O)[C@H](CC(C)C)NC(=O)[C@H](CCC(=O)O)NC(=O)[C@H](CO)NC(=O)[C@@H](NC(=O)[C@H](Cc1ccccc1)NC(=O)[C@@H](NC(=O)CNC(=O)[C@H](CCC(=O)O)NC(=O)C(C)(C)NC(=O)[C@@H](N)Cc1c[nH]cn1)[C@@H](C)O)[C@@H](C)O)[C@@H](C)O)[C@@H](C)CC)C(=O)N[C@@H](C)C(=O)N[C@@H](Cc1c[nH]c2ccccc12)C(=O)N[C@@H](CC(C)C)C(=O)N[C@H](C(=O)N[C@@H](CCC(=O)O)C(=O)N[C@@H](Cc1c[nH]cn1)C(=O)N[C@@H](CCCCN)C(=O)N[C@H](C(=O)N[C@H](C(=O)N[C@@H](CC(=O)O)C(=O)O)[C@@H](C)O)[C@@H](C)CC)[C@@H](C)CC
Regarding B2, the “EC50 GLP-1 (nM); cAMP AlphaScreen” value in assay [1] stood at 0.0098 nM. In assay [2], the “EC50 GLP-2 (nM); cAMP AlphaScreen” value was 0.067 nM.

B3: Compound 9 (peptide)
peptide: H-H[Aib]EGTFTDELATILDEQAARDFIAWLIAHKITD-OH
SMILES: CC[C@H](C)[C@H](NC(=O)[C@H](CC(C)C)NC(=O)[C@H](Cc1c[nH]c2ccccc12)NC(=O)[C@H](C)NC(=O)[C@@H](NC(=O)[C@H](Cc1ccccc1)NC(=O)[C@H](CC(=O)O)NC(=O)[C@H](CCCNC(=N)N)NC(=O)[C@H](C)NC(=O)[C@H](C)NC(=O)[C@H](CCC(N)=O)NC(=O)[C@H](CCC(=O)O)NC(=O)[C@H](CC(=O)O)NC(=O)[C@H](CC(C)C)NC(=O)[C@@H](NC(=O)[C@@H](NC(=O)[C@H](C)NC(=O)[C@H](CC(C)C)NC(=O)[C@H](CCC(=O)O)NC(=O)[C@H](CC(=O)O)NC(=O)[C@@H](NC(=O)[C@H](Cc1ccccc1)NC(=O)[C@@H](NC(=O)CNC(=O)[C@H](CCC(=O)O)NC(=O)C(C)(C)NC(=O)[C@@H](N)Cc1c[nH]cn1)[C@@H](C)O)[C@@H](C)O)[C@@H](C)O)[C@@H](C)CC)[C@@H](C)CC)C(=O)N[C@@H](C)C(=O)N[C@@H](Cc1c[nH]cn1)C(=O)N[C@@H](CCCCN)C(=O)N[C@H](C(=O)N[C@H](C(=O)N[C@@H](CC(=O)O)C(=O)O)[C@@H](C)O)[C@@H](C)CC
Consider B3, for which the “EC50 GLP-1 (nM); cAMP AlphaScreen” value in assay [1] amounted to 0.007 nM. In assay [2], the “EC50 GLP-2 (nM); cAMP AlphaScreen” value came to 0.041 nM.

B4: Compound 6 (peptide)
peptide: H-H[Aib]EGSFTSELATILDEQAARDFIAWLIHHKITD-OH
SMILES: CC[C@H](C)[C@H](NC(=O)[C@H](Cc1ccccc1)NC(=O)[C@H](CC(=O)O)NC(=O)[C@H](CCCNC(=N)N)NC(=O)[C@H](C)NC(=O)[C@H](C)NC(=O)[C@H](CCC(N)=O)NC(=O)[C@H](CCC(=O)O)NC(=O)[C@H](CC(=O)O)NC(=O)[C@H](CC(C)C)NC(=O)[C@@H](NC(=O)[C@@H](NC(=O)[C@H](C)NC(=O)[C@H](CC(C)C)NC(=O)[C@H](CCC(=O)O)NC(=O)[C@H](CO)NC(=O)[C@@H](NC(=O)[C@H](Cc1ccccc1)NC(=O)[C@H](CO)NC(=O)CNC(=O)[C@H](CCC(=O)O)NC(=O)C(C)(C)NC(=O)[C@@H](N)Cc1c[nH]cn1)[C@@H](C)O)[C@@H](C)O)[C@@H](C)CC)C(=O)N[C@@H](C)C(=O)N[C@@H](Cc1c[nH]c2ccccc12)C(=O)N[C@@H](CC(C)C)C(=O)N[C@H](C(=O)N[C@@H](Cc1c[nH]cn1)C(=O)N[C@@H](Cc1c[nH]cn1)C(=O)N[C@@H](CCCCN)C(=O)N[C@H](C(=O)N[C@H](C(=O)N[C@@H](CC(=O)O)C(=O)O)[C@@H](C)O)[C@@H](C)CC)[C@@H](C)CC
As for B4, the “EC50 GLP-1 (nM); cAMP AlphaScreen” value in assay [1] was determined as 0.014 nM. Moreover, the “EC50 GLP-2 (nM); cAMP AlphaScreen” value in assay [2] was 0.047 nM.

B5: Compound 3 (peptide)
peptide: H-H[Aib]EGTFTSELATILDEQAARDFIAWLIAHKITD-OH
SMILES: CC[C@H](C)[C@H](NC(=O)[C@H](CC(C)C)NC(=O)[C@H](Cc1c[nH]c2ccccc12)NC(=O)[C@H](C)NC(=O)[C@@H](NC(=O)[C@H](Cc1ccccc1)NC(=O)[C@H](CC(=O)O)NC(=O)[C@H](CCCNC(=N)N)NC(=O)[C@H](C)NC(=O)[C@H](C)NC(=O)[C@H](CCC(N)=O)NC(=O)[C@H](CCC(=O)O)NC(=O)[C@H](CC(=O)O)NC(=O)[C@H](CC(C)C)NC(=O)[C@@H](NC(=O)[C@@H](NC(=O)[C@H](C)NC(=O)[C@H](CC(C)C)NC(=O)[C@H](CCC(=O)O)NC(=O)[C@H](CO)NC(=O)[C@@H](NC(=O)[C@H](Cc1ccccc1)NC(=O)[C@@H](NC(=O)CNC(=O)[C@H](CCC(=O)O)NC(=O)C(C)(C)NC(=O)[C@@H](N)Cc1c[nH]cn1)[C@@H](C)O)[C@@H](C)O)[C@@H](C)O)[C@@H](C)CC)[C@@H](C)CC)C(=O)N[C@@H](C)C(=O)N[C@@H](Cc1c[nH]cn1)C(=O)N[C@@H](CCCCN)C(=O)N[C@H](C(=O)N[C@H](C(=O)N[C@@H](CC(=O)O)C(=O)O)[C@@H](C)O)[C@@H](C)CC
As for B5, the “EC50 GLP-1 (nM); cAMP AlphaScreen” value in assay [1] stood at 0.0074 nM. In addition, the “EC50 GLP-2 (nM); cAMP AlphaScreen” value in assay [2] was 0.036 nM.

B6: Teduglutide ([Gly2]-hGLP-2 (1-33)) (peptide)
peptide: HGDGSFSDEMNTILDNLAARDFINWLIQTKITD
With B6, in assay [1], the “EC50 GLP-1 (nM); cAMP AlphaScreen” value turned out to be 39 nM.

B7: Compound 7 (peptide)
peptide: H-H[Aib]EGSFTSELATILDEQAARDFIAWLIYHKITD-OH
SMILES: CC[C@H](C)[C@H](NC(=O)[C@H](Cc1ccccc1)NC(=O)[C@H](CC(=O)O)NC(=O)[C@H](CCCNC(=N)N)NC(=O)[C@H](C)NC(=O)[C@H](C)NC(=O)[C@H](CCC(N)=O)NC(=O)[C@H](CCC(=O)O)NC(=O)[C@H](CC(=O)O)NC(=O)[C@H](CC(C)C)NC(=O)[C@@H](NC(=O)[C@@H](NC(=O)[C@H](C)NC(=O)[C@H](CC(C)C)NC(=O)[C@H](CCC(=O)O)NC(=O)[C@H](CO)NC(=O)[C@@H](NC(=O)[C@H](Cc1ccccc1)NC(=O)[C@H](CO)NC(=O)CNC(=O)[C@H](CCC(=O)O)NC(=O)C(C)(C)NC(=O)[C@@H](N)Cc1c[nH]cn1)[C@@H](C)O)[C@@H](C)O)[C@@H](C)CC)C(=O)N[C@@H](C)C(=O)N[C@@H](Cc1c[nH]c2ccccc12)C(=O)N[C@@H](CC(C)C)C(=O)N[C@H](C(=O)N[C@@H](Cc1ccc(O)cc1)C(=O)N[C@@H](Cc1c[nH]cn1)C(=O)N[C@@H](CCCCN)C(=O)N[C@H](C(=O)N[C@H](C(=O)N[C@@H](CC(=O)O)C(=O)O)[C@@H](C)O)[C@@H](C)CC)[C@@H](C)CC
As for B7, the “EC50 GLP-1 (nM); cAMP AlphaScreen” value in assay [1] worked out at 0.017 nM. Also, in assay [2], the “EC50 GLP-2 (nM); cAMP AlphaScreen” value was 0.11 nM.

B8: Compound 4 (peptide)
peptide: H-H[Aib]EGSFTSELATILDEQAARDFIAWLIEHKITD-OH
SMILES: CC[C@H](C)[C@H](NC(=O)[C@H](Cc1ccccc1)NC(=O)[C@H](CC(=O)O)NC(=O)[C@H](CCCNC(=N)N)NC(=O)[C@H](C)NC(=O)[C@H](C)NC(=O)[C@H](CCC(N)=O)NC(=O)[C@H](CCC(=O)O)NC(=O)[C@H](CC(=O)O)NC(=O)[C@H](CC(C)C)NC(=O)[C@@H](NC(=O)[C@@H](NC(=O)[C@H](C)NC(=O)[C@H](CC(C)C)NC(=O)[C@H](CCC(=O)O)NC(=O)[C@H](CO)NC(=O)[C@@H](NC(=O)[C@H](Cc1ccccc1)NC(=O)[C@H](CO)NC(=O)CNC(=O)[C@H](CCC(=O)O)NC(=O)C(C)(C)NC(=O)[C@@H](N)Cc1c[nH]cn1)[C@@H](C)O)[C@@H](C)O)[C@@H](C)CC)C(=O)N[C@@H](C)C(=O)N[C@@H](Cc1c[nH]c2ccccc12)C(=O)N[C@@H](CC(C)C)C(=O)N[C@H](C(=O)N[C@@H](CCC(=O)O)C(=O)N[C@@H](Cc1c[nH]cn1)C(=O)N[C@@H](CCCCN)C(=O)N[C@H](C(=O)N[C@H](C(=O)N[C@@H](CC(=O)O)C(=O)O)[C@@H](C)O)[C@@H](C)CC)[C@@H](C)CC
Regarding B8, the “EC50 GLP-1 (nM); cAMP AlphaScreen” value in assay [1] is 0.015 nM. Moreover, in assay [2], the “EC50 GLP-2 (nM); cAMP AlphaScreen” value turned out to be 0.044 nM.

Source of the values: patent US11130793B2, “GLP-1/GLP-2 dual agonists” (Zealand Pharma A/S, priority 2016, dated 2021).
